How the values were obtained:
[1] = adult males of approximately 75 kg, bolus injection; cited from earlier work
[2] = Gamma camera study of radio-labelled ANF in rabbits; assay type: in vivo, rabbit
Procedure: A gamma camera study was carried out using ^131 I-ANF in domestic rabbits. The animals were sedated using Nembutal and the ANF was injected via the marginal ear vein. Camera images were taken at 100,000 count intervals up to 2.5 hours post injection.
A subsequent study with ^123 I-ANF in New Zealand White rabbits was also carried out. The animals were sedated with Nembutal and ANF was injected via the marginal ear vein. Camera images were taken at 100,000 intervals up to 1.25 hours post injection.

[3] = Gamma camera imaging of radio-labelled ANF uptake in green vervet monkey; assay type: in vivo
Procedure: ANF 99-126, rat form: 5 μg) was labelled by the inventors with ^125 I (1 mCi, obtained from commercial sources) using the lactoperoxidase method. The labelled compound was purified on HPLC (C-18 μBondapak™ column) by known methods. 250 μCi of the ^125 I ANF was administered to a 7 kg male monkey of green vervet species, as an intravenous bolus, under pentobarbital anesthesia. Prior to the experiment, the monkey was kept in a single cage with free access to food and water. The animal was subjected to data acquisition for 60 minutes using, as the scintillation detector, a gamma camera attached to a computer. Images and computer data were acquired at 10 second intervals.
A 7 kg anesthetized monkey which had been previously dehydrated for 18 hours was injected with an intravenous bolus injection of 80 μCi of ^131 I-ANF. […] Serial images (0-5, 5-10, 10-20 min.) and time activity curves were done and analyzed of the following regions of interest: the lungs, the kidneys, the upper and lower abdomen. […]
Serial images (0-7, 7-13, 13-20, 20-26, 26-30 min.) and time-activity curves were obtained and analyzed of the regions of interest over the lungs, kidneys, upper and lower abdomen. […]
The maximum and minimum levels of radioactivity over the 3 hour test period are given in each case.

Compound	bolus dose giving a medically effective hypotensive effect [1]	most prominent organ ([2]; lung also visible)	time of rapid accumulation in the kidney ([2]; post-injection, marginal ear vein, Nembutal sedation)	uptake of radio-label ([3]; 7 kg monkey dehydrated for 18 hours, 80 μCi intravenous bolus)	uptake of radio-label compared with dehydrated animal ([3]; 7 kg monkey hydrated with 120 cc saline, 65 μCi intravenous)
CC[C@H](C)[C@@H]1NC(=O)[C@H](CCCNC(=N)N)NC(=O)[C@H](CC(=O)O)NC(=O)[C@H](CCSC)NC(=O)[C@H](CCCNC(=N)N)NC(=O)CNC(=O)CNC(=O)[C@H](Cc2ccccc2)NC(=O)[C@@H](NC(=O)[C@H](CO)NC(=O)[C@H](CO)NC(=O)[C@H](CCCNC(=N)N)NC(=O)[C@H](CCCNC(=N)N)NC(=O)[C@H](CC(C)C)NC(=O)[C@@H](N)CO)CSSC[C@@H](C(=O)N[C@@H](CC(N)=O)C(=O)N[C@@H](CO)C(=O)N[C@@H](Cc2ccccc2)C(=O)N[C@@H](CCCNC(=N)N)C(=O)N[C@@H](Cc2ccc(O)cc2)C(=O)O)NC(=O)CNC(=O)[C@H](CC(C)C)NC(=O)CNC(=O)[C@H](CO)NC(=O)[C@H](CCC(N)=O)NC(=O)[C@H](C)NC(=O)CNC1=O [ANF, atrial natriuretic factor]	greater than 50 μg	–	–	–	–
^131 I-ANF: human ANF (99-126) with methionine in position 110 labelled with ^131 I; in Example 7 rat or human ANF	–	kidney was the most prominent organ	3 min	rapid uptake of radio-label particularly by the kidneys and lungs	lesser uptake of radio-label in both kidney and lung

Reference: US5326551A, “Nuclear imaging uses of radio-labelled atrial natriuretic factor” (L'Istitut de Recherches Cliniques de Montreal, priority 1991, dated 1994)
